Measurements reported in paper PMC9467883, “Autoinhibition of the GEF activity of cytoskeletal regulatory protein Trio is disrupted in neurodevelopmental disorder-related genetic variants” (The Journal of Biological Chemistry, 2022).

What was measured:
Human Rac1 [1] = molecular target: Human Rac1 (human, UniProt P63000 1-192); experiment: BLI; ForteBio BLItz; His-GEF1 (0.5 uM) or SR6-GEF1 (2 uM) loaded on Ni-NTA biosensors; nucleotide-free Rac1 at 4-5 concentrations in assay buffer (20 mM Hepes pH 7.25, 150 mM KCl, 5% glycerol, 0.01% TritonX-100, 1 mM DTT); Kd = koff/kon from the linear fit of kobs against Rac1 concentration; settings: both partners purified
Human Rac1 [2] = molecular target: Human Rac1 (human, UniProt P63000 1-192); experiment: as above; settings: both partners purified; remark: listed apart in the source

Row | Binder | Kd (Human Rac1 [1]) [nM] | Kd (Human Rac1 [2]) [nM]
1 | Human Trio GEF1 (domain or fragment, His tag omitted (used for Ni-NTA immobilization). The GEF1 limits are not printed: the C-terminus 1599 comes from the printed SR6-GEF1 construct (788-1599), and the N-terminus about 1284 follows the …) not shown | 151 | 
2 | Human Trio SR6-GEF1 (domain or fragment, Trio, human, spectrin repeats 6-9 appended to the GEF1 domain, 99 kDa; amino acids 788 to 1599 as stated for SR6-GEF1 in the modelling paragraph; Cloned into the pFastBac1 HTa vector; The limits 788-1599 are printed for the modelled SR6-GEF1, not in the cloning paragraph; also called His-SR6-GEF1; WT SR6-GEF1; source: Hi5 cells infected with baculovirus, purified (Ni-NTA, S200 Increase)) not shown |  | 316
